Laboratory results: the supplement of paper PMC9170038

Test system: MS2 coat protein
Assay: apparent KD of MS2 coat protein; designed switch direction (-1 OFF switch, 1 ON switch): 1; higher = weaker reporter binding
In short: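 Designed RNA switches were transcribed on Illumina chips by stalled E. coli RNA polymerase and titrated with SNAP-549-labelled MS2 coat protein from 0.7 or 1.5 nM, doubling to 3 µM. Step length ran from 0.8–1.5 h at the lowest concentration to 10–20 min at the highest. The apparent KD is the median over clusters for each design, from curve-fitted normalised cluster fluorescence.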

[1] = Eterna round: R95, input ligand: FMN 200 uM
[2] = Eterna round: R95, input ligand: microRNA oligo, concentration not stated
[3] = Eterna round: R95, input ligand: none
[4] = input ligand: microRNA oligo, concentration not stated

Sequence | apparent KD of MS2 coat protein [1] [nM] | apparent KD of MS2 coat protein [2] [nM] | apparent KD of MS2 coat protein [3] [nM] | apparent KD of MS2 coat protein (input ligand: FMN 200 uM) [nM] | apparent KD of MS2 coat protein [4] [nM] | apparent KD of MS2 coat protein (input ligand: none) [nM]
UAGAGAGGAAGCGAGGAUAUCGUGGGAGGGACAUGAGGAUCACCCAUGUAGGAUGUUGAGAGGAACGAGAAGGCGCAGGAAAGUA [JR_SS2_Sub076] (puzzle: Same State 2) | 92.4 | 63.5 | 91.2 | – | – | –
UAGUACAAGCUUUUUGCUUGUCUUAUUUAACAUGAGGAUCACCCAUGUAAGUUGAAAGUUAGAGAGUGCACCUUCAA [JR_SHM208A_Sub052] (Eterna round: R96, puzzle: Sensor for hsa-mir-208a) | – | – | – | 17.2 | 17 | 21.6
UUCUCACAUGAGGAUCACCCAUGUGAGCCUCUGUGAGGAUAUCCGACAUAAUUAAUUGAAGGAGAAGGUACACGAG [Leer] (puzzle: Same State 1) | 130 | 4.78 | 24.9 | – | – | –
GGUGGGUUACUACCAACACAUGAGGAUCACCCAUGUUUUGGGAAGGAUAUGGUACCUAUUUGGUACCAGAAGGUCCCGUUGGUG [salish99_SSNG3_r04_705] (Eterna round: R96, puzzle: Same State NG 3) | – | – | – | 28.7 | 25.8 | 36
GUAUAACAUGAGGAUCACCCAUGUCAACAAAGUCGAGGAUAUGGGCAGAGAGGAGAAGAACCAGAAGGCGAAUAUG [Mat - Same State 1 - Mod of UCT - D37] (puzzle: Same State 1) | 77.8 | 59.2 | 122 | – | – | –
AACAAAUACACAGGAUAUACAGUGGCAACCACUGUAGAAGGGUGGGCGGGUUCCAACAUGAGGAUCACCCAUGUACCCAAUAAC [Atbiladi] (Eterna round: R96, puzzle: Same State NG 1) | – | – | – | 521 | 535 | 882
GCGAGCGUACUUGCAACAUGAGGAUCACCCAUGUUAACUGGACAGGAUAUGGUACCGUUUCGGUACCAGAAGGGUUCCUUCAUG [JL SSNG3 3.60] (Eterna round: R96, puzzle: Same State NG 3) | – | – | – | 167 | 166 | 268
UAGAAUCUAUCUCAGGAUAUCAUGUCAAAGACAUGAGGAUCACCCAUGUACCAGGAAACUGGUUAUGAGAAGGGAGAUAGAUUCA [Mat - Same State 2 - Mod - D34] (puzzle: Same State 2) | 124 | 98.3 | 241 | – | – | –
CUGAGAAGUCAAGGAUAUCACGUCGAUUAGACGUGAGAAGGUGAUCAUUACAUGAGGAUCACCCAUGUGUUACAUGGAACUCAG [Brourd's SSNG1/1-A2 mod 7] (Eterna round: R96, puzzle: Same State NG 1) | – | – | – | 672 | 659 | 762
GCCAACGCAUGAGGAUAUGGCACCUUAUUGGUGCCAGAAGGCGUGUGUAUUCACAUGAGGAUCACCCAUGUAUUAUAGUUGGCA [Fiskers NG1ss - 16] (Eterna round: R96, puzzle: Same State NG 1) | – | – | – | 24.1 | 169 | 189
GCUCGCACGAUGACCGACAUGAGGAUCACCCAUGUGUGUCGGUAGGAUAUCUAUAUUAAGGAUUUAGAGAAGGGCCCAGCGAGC [SameState NG3 #20] (Eterna round: R96, puzzle: Same State NG 3) | – | – | – | 68.3 | 68.5 | 69.3
AUUUUUAAUGCAGGAUAUGAUUAACAUGAGGAUCACCCAUGUGGUGUUGUGAGUAAGGAGAGUGAUCAGAAGGGCAUUUUUUUA [JMF's solution 89] (Eterna round: R96, puzzle: Same State NG 2) | – | – | – | 1010 | 554 | 585
